Laboratory results as given in article PMC6088136.

Molecular target: GluA2 AMPAR (expressed in HEK293T) (UniProt P23819)
Assay: SPR

Chain of UniProt P23819 (P23819 25-883): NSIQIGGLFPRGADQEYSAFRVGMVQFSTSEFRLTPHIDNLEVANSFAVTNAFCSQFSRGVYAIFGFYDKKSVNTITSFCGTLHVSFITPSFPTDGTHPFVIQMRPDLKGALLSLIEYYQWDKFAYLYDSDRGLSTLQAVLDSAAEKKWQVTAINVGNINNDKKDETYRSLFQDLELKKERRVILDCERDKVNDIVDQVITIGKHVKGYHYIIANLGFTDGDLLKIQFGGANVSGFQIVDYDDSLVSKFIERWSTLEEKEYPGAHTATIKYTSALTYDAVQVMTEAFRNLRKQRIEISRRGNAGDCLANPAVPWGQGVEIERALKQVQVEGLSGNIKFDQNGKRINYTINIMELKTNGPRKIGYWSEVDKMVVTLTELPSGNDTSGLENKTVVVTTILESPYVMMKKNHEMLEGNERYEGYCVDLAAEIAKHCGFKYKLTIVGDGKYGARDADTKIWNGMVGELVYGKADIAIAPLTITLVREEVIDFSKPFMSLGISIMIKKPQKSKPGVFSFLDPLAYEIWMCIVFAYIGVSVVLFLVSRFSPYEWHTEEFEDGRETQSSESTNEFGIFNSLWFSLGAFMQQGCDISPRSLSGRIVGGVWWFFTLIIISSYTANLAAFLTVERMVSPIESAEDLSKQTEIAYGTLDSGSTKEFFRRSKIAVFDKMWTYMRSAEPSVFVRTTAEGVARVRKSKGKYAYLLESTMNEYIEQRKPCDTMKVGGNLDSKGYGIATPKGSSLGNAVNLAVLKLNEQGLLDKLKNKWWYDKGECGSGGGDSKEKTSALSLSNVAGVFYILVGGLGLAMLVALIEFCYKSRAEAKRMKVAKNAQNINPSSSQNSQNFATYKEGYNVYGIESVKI

Substance “Noelin1-3 (untagged, expressed in HEK293T) (natural protein)” has a Kd of 1 nM and a koff of 0.002 s⁻¹.
